# Assay results as given in US20120077731A1 (Ablynx, published 2012).
# T1: LIF-R (UniProt P42702 45-833, limits assumed)
# T1 sequence (looked up): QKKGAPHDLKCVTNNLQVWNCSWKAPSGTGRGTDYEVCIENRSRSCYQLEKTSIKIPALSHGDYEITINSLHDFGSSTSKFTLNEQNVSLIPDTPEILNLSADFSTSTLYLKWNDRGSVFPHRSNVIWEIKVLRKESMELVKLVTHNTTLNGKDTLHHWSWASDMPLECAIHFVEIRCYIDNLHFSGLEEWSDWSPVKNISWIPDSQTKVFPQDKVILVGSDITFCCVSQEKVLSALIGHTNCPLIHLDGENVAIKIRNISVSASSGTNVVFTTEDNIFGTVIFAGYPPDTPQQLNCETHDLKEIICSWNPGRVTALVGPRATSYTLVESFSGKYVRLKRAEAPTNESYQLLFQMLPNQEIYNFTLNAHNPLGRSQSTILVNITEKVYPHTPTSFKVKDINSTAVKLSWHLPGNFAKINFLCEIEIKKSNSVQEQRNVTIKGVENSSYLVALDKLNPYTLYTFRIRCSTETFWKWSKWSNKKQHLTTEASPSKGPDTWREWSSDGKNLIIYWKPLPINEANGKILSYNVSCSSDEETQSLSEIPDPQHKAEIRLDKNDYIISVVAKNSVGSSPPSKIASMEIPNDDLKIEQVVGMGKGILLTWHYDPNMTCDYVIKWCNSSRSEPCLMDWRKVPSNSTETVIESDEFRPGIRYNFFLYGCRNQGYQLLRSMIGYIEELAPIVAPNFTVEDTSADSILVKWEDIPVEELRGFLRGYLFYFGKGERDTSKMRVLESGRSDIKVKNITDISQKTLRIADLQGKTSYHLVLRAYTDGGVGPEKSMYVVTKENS
# T2: OSM-R (UniProt Q99650 28-739, limits assumed)
# T2 sequence (looked up): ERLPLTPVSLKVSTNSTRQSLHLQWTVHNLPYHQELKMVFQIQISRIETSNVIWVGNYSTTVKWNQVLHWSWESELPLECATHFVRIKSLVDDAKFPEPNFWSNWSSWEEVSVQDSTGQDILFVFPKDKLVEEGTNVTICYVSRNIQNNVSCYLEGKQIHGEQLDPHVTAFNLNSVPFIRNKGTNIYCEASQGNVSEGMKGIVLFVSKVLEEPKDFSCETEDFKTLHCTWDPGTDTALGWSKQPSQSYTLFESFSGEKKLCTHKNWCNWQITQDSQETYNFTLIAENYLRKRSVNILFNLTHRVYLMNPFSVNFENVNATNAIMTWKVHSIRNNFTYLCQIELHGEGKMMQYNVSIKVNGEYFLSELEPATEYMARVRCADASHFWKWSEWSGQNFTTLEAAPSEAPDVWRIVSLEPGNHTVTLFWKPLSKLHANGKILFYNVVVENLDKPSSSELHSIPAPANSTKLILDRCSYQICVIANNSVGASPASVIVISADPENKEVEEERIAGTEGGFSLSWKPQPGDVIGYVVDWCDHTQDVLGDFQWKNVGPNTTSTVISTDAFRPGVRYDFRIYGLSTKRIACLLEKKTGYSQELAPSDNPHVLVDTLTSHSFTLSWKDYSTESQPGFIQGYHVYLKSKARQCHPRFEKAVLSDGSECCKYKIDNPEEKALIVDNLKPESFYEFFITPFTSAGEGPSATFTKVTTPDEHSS
# T3: Human soluble IL-6R (human, UniProt P08887 20-358)
# T3 construct: Soluble recombinant form; biotinylated in some assays; also called hIL-6R; human IL-6R
# T3 sequence (looked up): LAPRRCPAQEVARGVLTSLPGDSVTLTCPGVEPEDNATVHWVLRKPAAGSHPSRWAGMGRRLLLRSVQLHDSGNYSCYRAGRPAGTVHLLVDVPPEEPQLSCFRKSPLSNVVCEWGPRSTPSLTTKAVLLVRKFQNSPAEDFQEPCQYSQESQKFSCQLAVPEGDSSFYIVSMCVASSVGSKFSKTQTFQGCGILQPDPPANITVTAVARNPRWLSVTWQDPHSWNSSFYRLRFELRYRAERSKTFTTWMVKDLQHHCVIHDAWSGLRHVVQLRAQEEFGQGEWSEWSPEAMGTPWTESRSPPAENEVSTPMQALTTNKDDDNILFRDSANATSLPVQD
# T4: Human membrane IL-6R on cells (human, UniProt P08887 20-468)
# T4 construct: whole, on cells; also called cell-surface expressed human IL-6R
# T4 sequence (looked up): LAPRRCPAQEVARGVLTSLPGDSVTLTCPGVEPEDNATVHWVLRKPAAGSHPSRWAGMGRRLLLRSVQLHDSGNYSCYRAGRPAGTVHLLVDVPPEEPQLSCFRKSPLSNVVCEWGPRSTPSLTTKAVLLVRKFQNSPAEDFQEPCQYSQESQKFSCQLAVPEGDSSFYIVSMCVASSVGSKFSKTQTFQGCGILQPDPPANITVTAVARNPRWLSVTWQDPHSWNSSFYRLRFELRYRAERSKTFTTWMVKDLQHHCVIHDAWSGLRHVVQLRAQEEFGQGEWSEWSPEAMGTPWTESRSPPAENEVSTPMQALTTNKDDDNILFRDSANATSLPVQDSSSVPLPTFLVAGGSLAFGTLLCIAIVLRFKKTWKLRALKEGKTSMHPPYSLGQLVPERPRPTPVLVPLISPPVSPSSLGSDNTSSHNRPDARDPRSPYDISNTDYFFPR
# B1: PMP20A11 (VHH)
# VHH: EVQLVESGGGLVQPGGSLRLSCAASGSVFKINVMAWYRQAPGKGRELVAGIISGGSTSYADSVKGRFTISRDNAKNTLYLQMNSLRPEDTAVYYCAFITTESDYDLGRRYWGQGTLVTVSS
# notes: also called IL6R20A11; IL6R300; not shown: c-myc and (His)6 tags
# How the values were obtained:
# LIF-R = biological target: T1, LIF-R; experiment: competitive binding ELISA: IL6R20A11 (0.05 nM) pre-incubated with a series of the receptor; free IL6R20A11 captured on sIL-6R and detected via anti-His
# OSM-R = biological target: T2, OSM-R; experiment: as above
# Human soluble IL-6R [1] = biological target: T3, Human soluble IL-6R; experiment: Biacore T100, IL-6R covalently coupled
# Human soluble IL-6R [2] = biological target: T3, Human soluble IL-6R; experiment: ELISA, IL6R20A11 on biotinylated human sIL-6R on neutravidin plate
# [3] = biological target: T4, Human membrane IL-6R on cells; experiment: flow cytometry, human PBL, monocytes donor 2
# Experimental: (§1) The Nanobodies were incubated in EDTA-treated blood from 2 donors and bound Nanobody was detected by flow cytometry. Lymphocytes, monocytes and granulocytes were gated based on FSC/SSC properties (FIG. 40) and bound Nanobodies were detected in the PE channel.
# [4] = biological target: T4, Human membrane IL-6R on cells; experiment: flow cytometry, human PBL, lymphocytes donor 1
# Experimental: as §1
binder,measurement,setting,value
B1,binding result,LIF-R,no binding (tested: 5 nM (log conc 0.7))
same,binding result,OSM-R,no binding (tested: 5 nM (log conc 0.7))
same,koff,Human soluble IL-6R [1],1.9e-05 s⁻¹
same,EC50,Human soluble IL-6R [2],0.35 nM
same,EC50,[3],4.78 nM
same,EC50,[4],3.65 nM
